According to the RNAGym collection of RNA variant scans (doi:10.7554/elife.90254):

B1: LINE1-full (parent)
chain: UACGUAGGUGGUUUUCCCCUGAUAGUGCUAAGGGGGCCUGGAAGUUUGGACUGGGCAGAGCUCAACACAGCGUGGCAAAGUGGCUGUGGCUAGACUGCCUCUCUGGAUUCCUCGUCACUCAGCAGGGCAUCUCUGAGAGAAAUGCC

Variants of: B1
Experiment: self-cleavage, relative activity (ratio to wild type); higher = more cleavage; in vitro, sequencing; the parent is a self-cleaving ribozyme
UACGUAGGUGGUUUUCCCCUGAUAGUGCUAAGGGGGCCUGGAAGUUUGGACUGGGCUGAGCUCAACACAGCGUGGCAAAGUGGCUGUGGCUAGACUGCCUCUCUGGAUUCCUCGUCACUCAGCAGGGCUUCUCUGAGAGAAAUGCC [A57U A129U] gave a self-cleavage of 0.11.
With UACGUAGGUGGUUUUCCCCUGAUAGUGCUAAGGGGGCCAGGAAGUUUGGACUGGGCAGAGCUCAACACAGCGUGGCAGAGUGGCUGUGGCUAGACUGCCUCUCUGGAUUCCUCGUCACUCAGCAGGGCAUCUCUGAGAGAAAUGCC [U39A A78G] the self-cleavage was 1.38.
Variant UACGUAGGUGGUUUUCCCCUGAUAGUGCUAAGGGGGCCUGGAAGUUUGGACUGGGCAGAGCUCAACACAGCGUGGCAAAGUGGCAGUGGCUAGACUGCCUCUCUGGAUUCCUCGUCACUCAGCAGGGCAUCUCUGAGUGAAAUGCC [U85A A138U] has a self-cleavage of 0.06.
Variant UACGUAGGUGGUCUUCCCCUGAUAGUGCUAAGGGGGGCUGGAAGUUUGGACUGGGCAGAGCUCAACACAGCGUGGCAAAGUGGCUGUGGCUAGACUGCCUCUCUGGAUUCCUCGUCACUCAGCAGGGCAUCUCUGAGAGAAAUGCC [U13C C37G] has a self-cleavage of 1.03.
With UACAUAGGUGGUUUUCCCCUGAUAGUGCUAAGGGGGCCUGGAAGUUUGGACUGGGCAGAGCUCAACACAGCGUGGCAAAGUGGCUGUGGCUAGACUGCCUCUCCGGAUUCCUCGUCACUCAGCAGGGCAUCUCUGAGAGAAAUGCC [G4A U104C] the self-cleavage was 0.83.
In the case of UACGCAGGUGGUUUUCCCCUGAUAGUGCUAAGGGGGCCUGGAAGUUUGGACUGGGCAGAGCUCAACACUGCGUGGCAAAGUGGCUGUGGCUAGACUGCCUCUCUGGAUUCCUCGUCACUCAGCAGGGCAUCUCUGAGAGAAAUGCC [U5C A69U], the self-cleavage is reported as 0.14.
Work on UACGUAGGUGGUUUUCCCCUGAUAGUGCUAAGGGGGCCAGGAAGUUUGGACUGGGCAGAGCUCAACACAGCGUGGCAAAGUGGCUGUGGCUAGACUGCCUCUCUGGAUUCCUCGUCACUCAGCAGGGCAUCUCUGAGAGAAAUGCC [U39A] yielded a self-cleavage of 1.34.
With UACGUAGGUGGUUUUCCCCUGAUAGUGCUAAGGGGGCCUGGAAGUUUGGACUGGGCAGAGCUCAACACAGCGUGGCAAAGUGGCUGUGGCUAGACUGCCUCUCUGGAUUCCUCGUCACUCCGCAGGGCAUCUCUGAGGGAAAUGCC [A121C A138G] the self-cleavage was 2.34.
Work on UACGUAGGUGGUUUUCCCCUGAUAGUGCUAAGGGGGCCUGGAAGUUUGGACUGGGCAGAGCUCAACACAGCGUGGCAAAGUGGCUGUGGCUAGACUGCCUCUCUGGAUUCCUCGUCACUCAGCCGGGCAUCUCUGAGAGAAAAGCC [A124C U143A] yielded a self-cleavage of 1.24.
UACGUAGGUGGUUUUCCCCUGAUAGUGCUAAGGGGGCUUGGAAGUUUGGACUGGGCAGAGCUCAACACAGCGUGGCAAAGUGGCUGUGGCUAGACUGCCUCUCUGGAUUCCUCGACACUCAGCAGGGCAUCUCUGAGAGAAAUGCC [C38U U115A] showed a self-cleavage of 1.46.
Work on UACGUAGGUGGUUUUCCCCUGAUAGUGCUAAGGGGGCCUGGAAGUUUGGACUGGGCAGAGCUCAACACAGCGUGGCAAAGUGGCUGUGGCUAGACUGCCUCUCUGGAUUCCUCGUCACUCAGCAGAGCAUCUCUGAGAGGAAUGCC [G126A A140G] yielded a self-cleavage of 1.49.
Variant UACGUAGGUGGUUUUCCCCUGAUAGUGCUAGGGGGGCCUGGAAGUUUGGACUGGGCAGAGCUCAACACAGCGUGGCAAAGUGGCUGUGGCUAGACUGCCUCUCUGGAUUCCUCGCCACUCAGCAGGGCAUCUCUGAGAGAAAUGCC [A31G U115C] has a self-cleavage of 1.37.
In the case of UACGUAGGUGGUUUUCCCCUGAUAGUGCUAAGGGGGCCUGGAAGUUUGGACUGGGCAGAGCUCAACACAGCGUGGCAAAGUGGCUGUGGCUAGACUGCCUCUCUGGAUUCCUCGUCACCCAGUAGGGCAUCUCUGAGAGAAAUGCC [U119C C123U], the self-cleavage is reported as 0.62.
UACGUAGGUGGUUUUCCCCUGAUAGUGCUAAGGGGGCCUGGAAGUUUGGACUGGGCAGAGCUCAACACAGCGUGGCAAAGUGGCUGUGGCUAGACUGCCUCUCUGGAUUCCUCGUCACCCAGAAGGGCAUCUCUGAGAGAAAUGCC [U119C C123A] gave a self-cleavage of 1.36.
For UACGUAGGUGGUUUUCCCCUGAUAGUGCUAAGGGGGCUUGGAGGUUUGGACUGGGCAGAGCUCAACACAGCGUGGCAAAGUGGCUGUGGCUAGACUGCCUCUCUGGAUUCCUCGUCACUCAGCAGGGCAUCUCUGAGAGAAAUGCC [C38U A43G], the self-cleavage was 0.81.
UACGUAGGUGGUUUUCCCCUGAUAGUGCUAUGGGGGCCUGGAAGUUUGGACUGGGCAGAGCUCAUCACAGCGUGGCAAAGUGGCUGUGGCUAGACUGCCUCUCUGGAUUCCUCGUCACUCAGCAGGGCAUCUCUGAGAGAAAUGCC [A31U A65U] showed a self-cleavage of 0.21.
In the case of UACGUAGGUGGUUUCCCCCUGAUAGUGCUAAGGGGGCCUGGAAGUUUGGACUGGGCAGAGCUCAACACAGCGUGGCAAAGUGGCUGUGGCUAGACUGCCUCUCUGGAUUCCUCGUCACUCAGCAGGGCAUCUCCGAGAGAAAUGCC [U15C U134C], the self-cleavage is reported as 1.43.
Variant CACGUAGGUGGUUUUCCCCUGAUAGUGCUAAGGGGGCCUGGAAGUUUGGACUGGGCAGAGCUCAACACAGCGUGGCAAAGGGGCUGUGGCUAGACUGCCUCUCUGGAUUCCUCGUCACUCAGCAGGGCAUCUCUGAGAGAAAUGCC [U1C U81G] has a self-cleavage of 1.01.
In the case of UACGUAGGUGGUUUUCCCCUGAGAGUGCUAAGGGGGCCUGGAAGUUUGGACUGGGCAGAGCUCAACACAGCGUGGCAAAGUGGCUGUGGCUAGACUGCCUCUCUGGAUACCUCGUCACUCAGCAGGGCAUCUCUGAGAGAAAUGCC [U23G U109A], the self-cleavage is reported as 1.
Work on UACGUAGGUGGUUUUCCCCUGAUAGUGCUAAGGGGGCCUGGAAGUUUGGACUGGGCUGAGCUCAACACAGCGUGGCAAAGUGGCUGCGGCUAGACUGCCUCUCUGGAUUCCUCGUCACUCAGCAGGGCAUCUCUGAGAGAAAUGCC [A57U U87C] yielded a self-cleavage of 0.04.
Work on UACGUAGGUGGUUUUCCCCCGAUAGUGCUAAGGGGGGCUGGAAGUUUGGACUGGGCAGAGCUCAACACAGCGUGGCAAAGUGGCUGUGGCUAGACUGCCUCUCUGGAUUCCUCGUCACUCAGCAGGGCAUCUCUGAGAGAAAUGCC [U20C C37G] yielded a self-cleavage of 1.08.
UACGUAGGUGGUUUUCCCCUGAUAGUGCUAAGGGGGCCUGGAAGUUUGGACUGGGCAGAGCUCAACACAGCGUGGCAAAGUGGCUGUGGCUAGACUGCCUCUCUGGAUUCCUCGUCAGUCAGCAGGGCAUCACUGAGAGAAAUGCC [C118G U132A] showed a self-cleavage of 1.21.
For UACGUAGGUGGUUUUCCCCUAAUAGUGCUAAGGGGGCCUGGAAGUUUGGACUGGGCAGAGCUCAACACAGCGUGGCAAAGUGGCUGUGGCUAGACUGCCUCUCUGGAUUCCCCGUCACUCAGCAGGGCAUCUCUGAGAGAAAUGCC [G21A U112C], the self-cleavage was 1.02.
Work on UGCGUAGGUGGUUUUCCCCUGAUAGUGCUAAGGGGGCCUGGAAGUUUGGACUGGGCAGAGCUCAACACAGCGUGGCAAAGUGGCUGUGGCUAGACUGCCUCUCUGGAAUCCUCGUCACUCAGCAGGGCAUCUCUGAGAGAAAUGCC [A2G U108A] yielded a self-cleavage of 1.02.
For UACGUAGGUGGUUUUCCCCUGAUAGUGCUAAGGGGGCCUGGAAGUUUGGACUGGGCAGAGCUCAACACAGCGUGGCAAAGUGGCUGUGGCUAGACUGCCUCUCUGGAUUCCUCGUCACCCAGCAGGGCAUCUCCGAGAGAAAUGCC [U119C U134C], the self-cleavage was 2.11.
UACGUAGGUGGUUUUCCCCUGAUAGUGCUAAGGGGGCCUGGAAGUUUGGACUGGGCAGAGCUCAACACGGCGUGGCAAAGUGGCUGUGGCUAGACUGCCUCUCUGGAUUCCUAGUCACUCAGCAGGGCAUCUCUGAGAGAAAUGCC [A69G C113A] showed a self-cleavage of 0.48.
Variant UACGUAGGUGGUUCUCCCCUGAUAGUGCUAAGGGGGCCUGGAAGUUUGGACUGGGCAGAGCUCAACACAGCGUGGAAAAGUGGCUGUGGCUAGACUGCCUCUCUGGAUUCCUCGUCACUCAGCAGGGCAUCUCUGAGAGAAAUGCC [U14C C76A] has a self-cleavage of 1.31.
With UACGUAGGUGGUUUUCCCCUGAUAGUGCUAAGGGGGCCUGGAAGUUUGGACUGGGCAGAGCUCAACACAGUGUGGCAAAGUGGCUGUGGCUAGACUGCCUCUCUGGAUUCCUCGUCACUCAGCAGGGCAUCCCUGAGAGAAAUGCC [C71U U132C] the self-cleavage was 1.05.
Variant UACGUAGGUGGUUUUCCCCUGAUAGUGCUAAGGGGGCCUGGAAGUUUGGACUAGGCAGAGCUCAACACAGCGUAGCAAAGUGGCUGUGGCUAGACUGCCUCUCUGGAUUCCUCGUCACUCAGCAGGGCAUCUCUGAGAGAAAUGCC [G53A G74A] has a self-cleavage of 1.04.
With UACGUAGGUGGUUGUCCCCUGAUAGUGCUAAGGGGGCCUGGAAGUUUGGACUGGGCAGAGCUCAACUCAGCGUGGCAAAGUGGCUGUGGCUAGACUGCCUCUCUGGAUUCCUCGUCACUCAGCAGGGCAUCUCUGAGAGAAAUGCC [U14G A67U] the self-cleavage was 0.39.
With UACGUAGGUGGUUUUCCCCUGAUAGUGCUAAGGGGGCCUGGAAGUUUGGACUGGGCAGAGCUCAACACAGCGUGGCAAAGCGGCUGUGGCUAGACUGCCUUUCUGGAUUCCUCGUCACUCAGCAGGGCAUCUCUGAGAGAAAUGCC [U81C C101U] the self-cleavage was 2.14.
UACGUAGGUGGUUUUCCCCUGAUAGUGCUAAGGGGGCCUGGAAGUUUGGACUGGGCAGAGCUCAACACAGCGUGGCAAAGUGGCUAUGGCUAGACUGCCUCUCUGGAUUCCUCGUCACUCAGCAGGGCAUCUCCGAGAGAAAUGCC [G86A U134C] gave a self-cleavage of 0.08.
Variant UACGUAGGUGGUUUUCCCCUGAUAGUGCUAGGGGGGCCUGGAAGUUUGGACUGGGCAGAGCUCAACACAGCGUGGCAAAGUGGCUGUGGAUAGACUGCCUCUCUGGAUUCCUCGUCACUCAGCAGGGCAUCUCUGAGAGAAAUGCC [A31G C90A] has a self-cleavage of 0.12.
For UGCGUAGGUGGCUUUCCCCUGAUAGUGCUAAGGGGGCCUGGAAGUUUGGACUGGGCAGAGCUCAACACAGCGUGGCAAAGUGGCUGUGGCUAGACUGCCUCUCUGGAUUCCUCGUCACUCAGCAGGGCAUCUCUGAGAGAAAUGCC [A2G U12C], the self-cleavage was 0.96.
With UACGUAGGUGGUUUUCCCCUGAUAGUGCUAAGGGGGCCUGGAAGUUUGGACUGGGCAGAGCUCAACACAGCGUGGCAAAGUGGCUGUGGCUAGACUGCAUCUCUGGAUUCCUCGUCACUCAGCGGGGCAUCUCUGAGAGAAAUGCC [C99A A124G] the self-cleavage was 0.21.
Variant UACGGAGGUGGUUUUCCCCUGAUAGUGCUAAGGGGGCCUGGAAGUUUGGACUGGGCAGAGCUCAACACAGCGUGGCAAAGUGGCUGUGGCUAGACUGCCUCUCUGGAUUCCCCGUCACUCAGCAGGGCAUCUCUGAGAGAAAUGCC [U5G U112C] has a self-cleavage of 0.51.
Variant UACGUAGGUGGUUUUCCCCUGAUAGUGCUAAGGGGGCCUGGAAGUUUGGACUGGGCAGAGCUCAACACAGCGUGGCAAAGCGGCUGUGGCUAGACUGCCUCUCUGGAUUCCUCGUCACUCAGCAGGGCAUCUCUGAGCGAAAUGCC [U81C A138C] has a self-cleavage of 2.23.
Variant UACGUAGGUGGUUUUCCCCUGAUAGUGCUAAGGGGGCCUGGAAGUUUGGACUGGGCAGAGCUCAACACAGCGUGGCAAAGUGGCUGUGGCUAGACUGCCUCUCUGGAUUUCUCGUCACUCAGCAGGGCAUCUCUGAGAGAAAUGCU [C110U C146U] has a self-cleavage of 1.82.
Work on UACGUAUGUGGUUUUCCCCUGAUAGUGCUAAGGGGGCCUGGAAGUUUGGACUGGGCAGAGCCCAACACAGCGUGGCAAAGUGGCUGUGGCUAGACUGCCUCUCUGGAUUCCUCGUCACUCAGCAGGGCAUCUCUGAGAGAAAUGCC [G7U U62C] yielded a self-cleavage of 0.04.
